The source of these data is PMC2764089.

For this assay, the target named is Spc105p-PrA (S. cerevisiae) (UniProt P53148). Nature of the assay: SEC + other: glycerol-gradient velocity ultracentrifugation; whole cell extracts of wild-type strains expressing Spc105p-PrA or Kre28p-PrA (each fusion in its own strain); 10-40% glycerol gradients and HiPrep 16/60 Sephacryl S-500 HR column; fractions found by western blotting with anti-PrA. In general terms: Immunoblotting shows a protein as a band on a membrane.
UniProt P53148, sequence (P53148 whole entry, the tested form may be a part): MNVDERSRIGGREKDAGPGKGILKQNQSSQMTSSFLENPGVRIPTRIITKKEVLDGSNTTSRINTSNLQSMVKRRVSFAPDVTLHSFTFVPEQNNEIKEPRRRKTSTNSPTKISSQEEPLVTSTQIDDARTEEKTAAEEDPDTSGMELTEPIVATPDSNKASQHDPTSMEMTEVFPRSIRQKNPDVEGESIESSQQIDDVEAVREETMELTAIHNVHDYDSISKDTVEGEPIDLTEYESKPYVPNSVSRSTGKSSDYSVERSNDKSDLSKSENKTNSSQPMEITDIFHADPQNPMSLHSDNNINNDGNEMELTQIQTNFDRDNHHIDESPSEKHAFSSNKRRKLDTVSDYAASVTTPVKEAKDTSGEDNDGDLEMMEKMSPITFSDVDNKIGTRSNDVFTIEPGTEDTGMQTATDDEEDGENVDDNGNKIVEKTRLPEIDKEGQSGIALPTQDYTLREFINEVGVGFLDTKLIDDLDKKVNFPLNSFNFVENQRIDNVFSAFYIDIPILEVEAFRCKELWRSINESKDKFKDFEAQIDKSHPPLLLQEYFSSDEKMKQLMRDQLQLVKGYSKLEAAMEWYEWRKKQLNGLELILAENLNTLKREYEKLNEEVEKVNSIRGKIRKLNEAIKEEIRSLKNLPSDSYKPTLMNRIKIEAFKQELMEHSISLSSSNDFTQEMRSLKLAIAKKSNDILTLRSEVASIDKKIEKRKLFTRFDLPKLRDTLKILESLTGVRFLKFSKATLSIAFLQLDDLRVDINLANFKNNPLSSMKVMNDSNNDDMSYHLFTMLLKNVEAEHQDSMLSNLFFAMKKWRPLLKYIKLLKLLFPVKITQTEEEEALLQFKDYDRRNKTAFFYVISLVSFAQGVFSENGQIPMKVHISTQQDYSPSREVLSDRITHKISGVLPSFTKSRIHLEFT

In the case of “Kre28p-PrA (from UniProt Q04431 1-385) (natural protein)”, the stoichiometry N (Kre28p per Spc105p) is 2.
